Source: article PMC7885266

Target: 3TBP-CTPR6-foldon
Experiment: co-sedimentation; co-precipitation assay: 10 μM hTNKS2 ARC1–3 mixed with an equal volume of CTPR protein (fixed or increasing concentrations) in 50 mM Tris-HCl, 150 mM NaCl, 0.5 mM TCEP, pH 7.3; 1 h at room temperature, 20 000g 30 min; supernatant and pellet on SDS-PAGE, band densities give the stoichiometry in the pellet

B1: Tankyrase-2 Ankyrin Repeat Clusters 1-3 (residues 2-485) (domain or fragment)
chain: SGRRCAGGGAACASAAAEAVEPAARELFEACRNGDVERVKRLVTPEKVNSRDTAGRKSTPLHFAAGFGRKDVVEYLLQNGANVQARDDGGLIPLHNACSFGHAEVVNLLLRHGADPNARDNWNYTPLHEAAIKGKIDVCIVLLQHGAEPTIRNTDGRTALDLADPSAKAVLTGEYKKDELLESARSGNEEKMMALLTPLNVNCHASDGRKSTPLHLAAGYNRVKIVQLLLQHGADVHAKDKGDLVPLHNACSYGHYEVTELLVKHGACVNAMDLWQFTPLHEAASKNRVEVCSLLLSYGADPTLLNCHNKSAIDLAPTPQLKERLAYEFKGHSLLQAAREADVTRIKKHLSLEMVNFKHPQTHETALHCAAASPYPKRKQICELLLRKGANINEKTKEFLTPLHVASEKAHNDVVEVVVKHEAKVNALDNLGQTSLHRAAYCGHLQTCRLLLSYGCDPNIISLQGFTALQMGNENVQQLLQEGI
- stoichiometry N: 2
